According to paper PMC7535908, “Dipeptidyl peptidase 3 modulates the renin–angiotensin system in mice” (The Journal of Biological Chemistry, 2020):

Assays:
[1] = molecular target: T1, purified recombinant human DPP3 (hDPP3) (Homo sapiens, UniProt Q9NY33); test: Single-injection ITC enzyme kinetics of angiotensin peptide hydrolysis by hDPP3; type: biochemical; conditions: for Substrate behaviour with DPP3 (heat signal, result in words): 5 µl of 2 mM peptide into 20 μM hDPP3, pH 8.0, 25 °C, no curve fitting possible for slow or poor substrates; for ΔH (enthalpy of interaction, heat of reaction) / kcat (maximum turnover number) / Km: 5 µl of 2 mM peptide into 200 µl of 20 μM hDPP3, 50 mM Tris-HCl pH 8.0, 100 mM NaCl, 25 °C, means ± S.D., three or more technical replicates from two biological replicates; for kcat (maximum turnover number) / Km: Michaelis–Menten fit, SD; for Km: read-out: Km (Michaelis–Menten constant)
T1 construct: made in house
T1 sequence (Q9NY33 1-737): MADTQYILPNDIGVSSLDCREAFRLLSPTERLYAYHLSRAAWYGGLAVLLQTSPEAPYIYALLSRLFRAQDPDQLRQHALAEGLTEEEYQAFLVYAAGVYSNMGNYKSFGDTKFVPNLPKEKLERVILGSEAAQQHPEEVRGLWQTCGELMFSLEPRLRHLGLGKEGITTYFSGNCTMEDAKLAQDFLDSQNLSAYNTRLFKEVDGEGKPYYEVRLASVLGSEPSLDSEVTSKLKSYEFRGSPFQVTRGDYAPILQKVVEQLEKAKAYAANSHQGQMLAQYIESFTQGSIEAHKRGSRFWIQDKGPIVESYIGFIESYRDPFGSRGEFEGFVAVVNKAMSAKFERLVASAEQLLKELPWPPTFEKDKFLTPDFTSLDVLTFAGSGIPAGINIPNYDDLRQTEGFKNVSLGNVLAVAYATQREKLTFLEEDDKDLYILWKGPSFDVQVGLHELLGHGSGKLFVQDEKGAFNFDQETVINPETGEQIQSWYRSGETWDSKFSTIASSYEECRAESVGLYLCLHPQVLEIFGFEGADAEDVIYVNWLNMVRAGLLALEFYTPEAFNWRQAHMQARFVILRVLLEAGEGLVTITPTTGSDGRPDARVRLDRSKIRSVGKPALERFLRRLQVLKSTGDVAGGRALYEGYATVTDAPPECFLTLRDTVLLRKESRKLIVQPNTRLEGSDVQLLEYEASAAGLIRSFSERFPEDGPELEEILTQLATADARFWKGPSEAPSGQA
From the text: Thus, we investigated the activity of DPP3 against different angiotensin peptides. Kinetic parameters of angiotensin peptides were obtained by single-injection calorimetry measurements that are based on the exothermal hydrolysis of peptide bonds by purified recombinant human DPP3, which shares 93% sequence identity with the mouse DPP3. […] The graphs show the rate of angiotensin conversion as a function of its concentration. The insets depict the raw data of heat change caused by the conversion of substrate peptides.
Figure 9. […] The reaction was started by injecting 5 µl of 2 mM angiotensin peptides to the calorimetric cell containing 20 μM hDPP3. The data represent three or more technical replicates from two biological replicates.
Calorimetric activity of six different angiotensin peptides as purported substrates of DPP3 were further assayed using a MicroCal PEAQ-ITC (Malvern Panalytical Ltd., Malvern, UK). […] For this, the single-injection method was used, in which 5 µl of 2 mM angiotensin peptide was titrated into 200 µl of 20 μM purified hDPP3. The purification of recombinant hDPP3 was done as described in Ref. [35]. Both the ligand and the purified protein were prepared in 50 mM Tris-HCl at pH 8.0 containing 100 mM NaCl. The experiments consisted of a single injection of the ligand continuously over a period of 10 s, including an initial delay of 180 s before the injection and a spacing of 300 s after the injection. The experiments were performed at 25 °C with a stirring speed of 500 rpm. The thermodynamic characterization of this binding interaction was obtained using MicroCal PEAQ-ITC analysis software.

[2] = molecular target: T2, purified recombinant human DPP3 (dipeptidyl peptidase 3) (human) (UniProt Q9NY33)
T2 sequence: T1 sequence (Q9NY33 1-737)

Km, single-injection ITC enzyme kinetics (hydrolysis of the peptide by hDPP3) [2] [µM] | kcat, single-injection ITC enzyme kinetics (hydrolysis of the peptide by hDPP3) [2] [s⁻¹] | Substance | Substrate behaviour with DPP3 (heat signal, result in words) [1] | other results
 |  | Ang I: angiotensin peptide (1–10), commercially purchased (Bachem), tested as purported substrate of DPP3 (DRVYIHPFHL) | poor substrate | 
 |  | Ang III: angiotensin peptide (2–8), commercially purchased (Bachem) | both endothermic and exothermic behavior | 
 |  | Ang IV: angiotensin peptide (3–8), commercially purchased (Bachem) | both endothermic and exothermic behavior | 
 |  | Ang(1–5): angiotensin peptide (1–5), commercially purchased (Bachem) (DRVYI) | “good” substrates | ΔH (enthalpy of interaction, heat of reaction) [1]: -1.84 ± -0.04 kcal/mol; kcat (maximum turnover number) [1]: 0.35 ± 0.002 s⁻¹; Km [1]: 12.5 ± 2.2 µM
 |  | Ang(1–7): angiotensin peptide (1–7), commercially purchased (Bachem), main metabolite of the alternate RAS | “good” substrates | ΔH (enthalpy of interaction, heat of reaction) [1]: -1.52 ± -0.10 kcal/mol; kcat (maximum turnover number) [1]: 0.14 ± 0.003 s⁻¹; Km [1]: 1.95 ± 0.2 µM
12.5 | 0.35 | angiotensin (1–5), Ang(1–5) (from UniProt P01019 25-29) (peptide) |  | ΔH (enthalpy of interaction, also called heat of reaction), single-injection ITC [2]: -1.84 kcal/mol
1.95 | 0.14 | angiotensin (1–7), Ang(1–7) (from UniProt P01019 25-31) (peptide) |  | ΔH (enthalpy of interaction, also called heat of reaction), single-injection ITC [2]: -1.52 kcal/mol
8.4 | 0.25 | angiotensin II, Ang II (1–8) (from UniProt P01019 25-32) (peptide) |  | 
 |  | tynorphin | “slow” substrates | 
